Legend:
human HIDE1 [1] = biological target: T1, human HIDE1 (human, UniProt A8MVS5 20-230); experiment: FACS, THP1 cells
T1 construct: Endogenous on U937, HL-60, THP-1 cells, blood monocytes, AML blasts and dendritic cells; also called C19orf38; hHIDE1
T1 sequence: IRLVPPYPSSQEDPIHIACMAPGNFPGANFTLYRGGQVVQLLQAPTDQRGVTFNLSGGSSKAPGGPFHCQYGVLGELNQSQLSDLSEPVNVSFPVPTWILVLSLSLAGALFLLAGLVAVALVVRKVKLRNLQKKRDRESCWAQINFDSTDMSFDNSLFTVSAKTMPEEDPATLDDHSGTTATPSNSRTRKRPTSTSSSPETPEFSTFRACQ

human HIDE1 [2] = biological target: T1, human HIDE1; experiment: FACS, U937 cells
human HIDE1 [3] = biological target: T1, human HIDE1; experiment: FACS, HL-60 cells
human HIDE1 [4] = biological target: T1, human HIDE1; experiment: FACS, U937 cells transfected with HIDE1 siRNA
human HIDE1 [5] = biological target: T1, human HIDE1; experiment: FACS, HL-60 cells transfected with HIDE1 siRNA
human HIDE1 [6] = biological target: T1, human HIDE1; experiment: FACS, U937 cells transfected with scrambled siRNA
human HIDE1 [7] = biological target: T1, human HIDE1; experiment: FACS, HL-60 cells transfected with scrambled siRNA
human HIDE1 [8] = biological target: T1, human HIDE1; experiment: FACS, CD14+ cells of human PBMCs, Alexa 647 conjugate
Protocol: The following antibodies were used. […] Brilliant violet 510 labeled anti-CD3 (Biolegend, cat. 344828), PE-labeled anti-CD14 (Biolegend, cat. 301806) and PercP-labeled anti-CD19 (Biolegend, cat. 302228).
PBMCs cells were thawed and stained with viability dye (BD Horizon; Cat#562247, BD biosciences), washed and pre-blocked with Fc blocking solution (cat#422302, Biolegend; 1:20) and/or human Ig Fc (Jackson; 200 μg/ml; cat#009-000-008) to avoid nonspecific binding via Fc receptors. Cells were then stained with anti-hHIDE1 mAbs or mIgG1 isotype control in the presence or absence of lymphocytes or monocytes surface marker. All samples were run on a MACSQuant analyzer (Miltenyi) and data was analyzed using Tree Star FlowJo software. Cells were first gated for lymphocytes or monocyte (FSC-A vs. SSC-A), and further gated for live cells before analyzed for HIDE1 expression by flow cytometry.

human HIDE1 [9] = biological target: T1, human HIDE1; experiment: FACS, THP1 cells transfected with HIDE1 siRNA, AF647 conjugate
Protocol: Confirmation of HIDE1 endogenous expression was also tested in THP1 cells transfected with HIDE1 siRNA as described in M&M section. Analysis of human HIDE1 membrane expression in the siRNA transfected cells was performed by FACS. As shown in FIG. 31 membrane expressions of human HIDE1 protein is reduced in cells transfected with HIDE1 siRNA (green) as compared to cells transfected with scrambled siRNA (orange).

mouse HIDE1 Flag = biological target: T2, mouse HIDE1 Flag (mouse, UniProt Q75VT8 22-222); experiment: Western blot of whole cell extracts, goat anti-mouse HRP
T2 construct: Over-expressed on HEK293 and EL4 cells (pMSCV); whole cell extracts in WB; also called mHIDE1 flag; not shown: Flag tag
T2 sequence: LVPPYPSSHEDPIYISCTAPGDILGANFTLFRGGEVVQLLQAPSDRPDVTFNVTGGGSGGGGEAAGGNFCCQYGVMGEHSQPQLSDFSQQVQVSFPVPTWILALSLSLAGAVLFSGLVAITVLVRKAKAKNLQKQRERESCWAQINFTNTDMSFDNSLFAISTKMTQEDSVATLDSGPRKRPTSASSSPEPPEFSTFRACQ

B1: Mouse anti human HIDE1 mAb (Biotem #33B4-2F7) (antibody, mouse IgG1, kappa, V domains shown)
VH: QIQLVQSGPELKKPGETVKISCKASGYTFTNYGMNWVKQAPGKGLKWMGWINTYTGEPTYADDFKGRFAFSLETPASTAYLQINNLKNEDMATYFCVREHFYALDYWGQGTSVTVSS
VL: KIVLTQSPASLAVSLRQRATISCRASESVDSYGNSFMHWYQQKPGQPPKLLIYRASNLESGVPARFSGSGSRTDFTLTIDPVEADDAATYYCQQSNEDPRTFGGGTKLEIKR
notes: Mouse IgG1; also called Ab-364
- FACS (fold change from isotype) (human HIDE1 [1]): 3 fold
- FACS (fold change from isotype) (human HIDE1 [2]): 14 fold
- FACS (fold change from isotype) (human HIDE1 [3]): 4 fold
- fold change (anti HIDE1 vs. isotype control) (human HIDE1 [4]): 7 fold
- fold change (anti HIDE1 vs. isotype control) (human HIDE1 [5]): 3 fold
- fold change (anti HIDE1 vs. isotype control) (human HIDE1 [6]): 17.7 fold
- fold change (anti HIDE1 vs. isotype control) (human HIDE1 [7]): 5.2 fold
- staining, folds over isotype control (human HIDE1 [8]): ~3 fold
- fold change (anti HIDE1 vs. isotype control) (human HIDE1 [9]): 1.9 fold
- binding result (mouse HIDE1 Flag): no binding (tested: 2 µg/ml)

From patent publication US20180305451A1 (COMPUGEN, published 2018)
